The chains are these.
B1: SEQ ID #18: SEQ ID NO:14 with substitution of T for I within the sequence motif SQIQTY (protein, listed as Avena sativa)
chain: MPPTPATATGAAAAAVTPEHAARSFPRVVRVNPRSDRFPVLSFHHVELWCADAASAAGRFSFALGAPLAARSDLSTGNSAHASLLLRSGALAFLFTAPYAPPPQEAATAATASIPSFSADAARTFAAAHGLAVRSVGVRVADAAEAFRVSVAGGARPAFAPADLGHGFGLAEVELYGDVVLRFVSYPDETDLPFLPGFERVSSPGAVDYGLTRFDHVVGNVPEMAPVIDYMKGFLGFHEFAEFTAEDVGTTESGLNSVVLANNSEAVLLPLNEPVHGTKRRSQTQTYLEYHGGPGVQHIALASNDVLRTLREMRARTPMGGFEFMAPPQAKYYEGVRRIAGDVLSEEQIKECQELGVLVDRDDQGVLLQIFTKPVGDRPTFFLEMIQRIGCMEKDEVGQEYQKGGCGGFGKGNFSELFKSIEDYEKSLEVKQSVVAQKS
B2: SEQ ID #21: SEQ ID NO:14 with substitution of V for I within the sequence motif SQIQTY (protein, listed as Avena sativa)
chain: B1 chain with T284V
B3: SEQ ID #14: HPPD derived from Avena sativa; single deletion variant of the Avena sativa HPPD (protein)
chain: B1 chain with T284I
modifications: mutant HPPD polypeptide
B4: SEQ ID #24: SEQ ID NO:14 with substitution of M for L within the sequence motif G(I,V)LVDRD (protein, listed as Avena sativa)
chain: B1 chain with T284I, L358M
B5: SEQ ID #26: SEQ ID NO:14 with M for L within G(I,V)LVDR and M for L within SGLNS (protein, listed as Avena sativa)
chain: B1 chain with L255M, T284I, L358M
B6: SEQ ID #22: SEQ ID NO:14 with substitution of M for L within the sequence motif SGLNS (protein, listed as Avena sativa)
chain: B1 chain with L255M, T284I
B7: K411T: K411T mutant of HPPD SEQ ID NO:14 (protein)
chain: B1 chain with T284I, K411T
modifications: mutant HPPD polypeptide
B8: M325L: M325L mutant of HPPD SEQ ID NO:14 (protein)
chain: B1 chain with T284I, M325L
modifications: mutant HPPD polypeptide
B9: A326R: A326R mutant of HPPD SEQ ID NO:14 (protein)
chain: B1 chain with T284I, A326R
modifications: mutant HPPD polypeptide
B10: V217I: V217I mutant of HPPD SEQ ID NO:14 (protein)
chain: B1 chain with V217I, T284I
modifications: mutant HPPD polypeptide
B11: L358M: L358M mutant of HPPD SEQ ID NO:14 (apparently the change of SEQ ID NO:24) (protein)
chain: B1 chain with T284I, L358M
modifications: mutant HPPD polypeptide
B12: L281I: mutant of HPPD SEQ ID NO:14, called L271I in the text (protein)
chain: B1 chain with L271I, T284I
modifications: mutant HPPD polypeptide
B13: L281V: mutant of HPPD SEQ ID NO:14, called L271V in the text (protein)
chain: B1 chain with L271V, T284I
modifications: mutant HPPD polypeptide
B14: S415K: S415K mutant of SEQ ID NO:14 (protein)
chain: B1 chain with T284I, S415K
modifications: mutant HPPD polypeptide
B15: G254A: G254A mutant of SEQ ID NO:14 (protein)
chain: B1 chain with G254A, T284I
modifications: mutant HPPD polypeptide
B16: I299M: I299M mutant of SEQ ID NO:14 (protein)
chain: B1 chain with T284I, I299M
modifications: mutant HPPD polypeptide
B17: T372S: T372S mutant of SEQ ID NO:14 (protein)
chain: B1 chain with T284I, T372S
modifications: mutant HPPD polypeptide
B18: E416Q: E416Q mutant of SEQ ID NO:14 (protein)
chain: B1 chain with T284I, E416Q
modifications: mutant HPPD polypeptide
B19: A326S: A326S mutant of SEQ ID NO:14 (protein)
chain: B1 chain with T284I, A326S
modifications: mutant HPPD polypeptide
B20: S415Q: S415Q mutant of SEQ ID NO:14 (protein)
chain: B1 chain with T284I, S415Q
modifications: mutant HPPD polypeptide
B21: L269F: L269F mutant of SEQ ID NO:14 (protein)
chain: B1 chain with L269F, T284I
modifications: mutant HPPD polypeptide
B22: V258I: V258I mutant of SEQ ID NO:14 (protein)
chain: B1 chain with V258I, T284I
modifications: mutant HPPD polypeptide
B23: G254S: G254S mutant of SEQ ID NO:14 (protein)
chain: B1 chain with G254S, T284I
modifications: mutant HPPD polypeptide
B24: L269M: L269M mutant of SEQ ID NO:14 (protein)
chain: B1 chain with L269M, T284I
modifications: mutant HPPD polypeptide
B25: I421L: I421L mutant of SEQ ID NO:14 (protein)
chain: B1 chain with T284I, I421L
modifications: mutant HPPD polypeptide
B26: S420A: S420A mutant of SEQ ID NO:14 (protein)
chain: B1 chain with T284I, S420A
modifications: mutant HPPD polypeptide

Where a chain is given by its changes, count along the chain named. Names and notes keep the numbering of the source.

A short description of the first data set: Km and kcat of expressed HPPDs (HPLC/UV quantitation of homogentisate). The format is biochemical, Avena sativa. As to conditions: HPPDs expressed in extracts; 25° C., pH 7.0. As to the method:
The assay solution was transferred to Chromacol 03-CVG HPLC vials, sealed and the amount of homogentisate formed in a 40 μl aliquot determined by injection onto a reverse phase Aqua C18 5μ 75×4.6 mm HPLC column running 5.5% acetonitrile 0.1% TFA (Buffer A) at 1.5 ml/min. The column was eluted at 1.5 ml/minute using a 2 minute wash in buffer A, followed by a 2 minute wash in a 30/70 mixture of buffer A and 100% Acetonitrile, and a further 3.5 minute wash in buffer A. The elution of homogentisate was monitored by UV at 292 nm and the amount formed in each reaction quantified by comparison with a standard calibration curve.
Km and Vmax values were determined (for example FIG. 1) using a non linear least squares fit using Grafit 4™ software (Erithacus Software, Middlesex, UK). Kcat values were determined by dividing the maximum rate, Vmax expressed in nmol/second by the number of nmoles of HPPD enzyme (based on the concentration determined by active-site titration).
Experiments were carried out as described for Table 4. ‘Sulc’ denotes sulcotrione and ‘nd’ means ‘no data’. For V217I, L271I, L271V, V258M and A326R, the relative values of kcat were estimated from comparisons of the initial rates in cell extracts of similarly prepared and expressed HPPDs in conventional enzyme activity assays at pH 7.0, 25° C. and at a substrate concentration of 120 μM HPP.
In the case of B1, the Km worked out at 36 µM. As for B2, the Km came to 5.98 µM. For the molecule B3, the Km stood at 5.38 µM. With B4, the Km came to 4.74 µM.

Consider B5, for which the Km worked out at 10.6 µM. Turning to B6, the Km was 12.4 µM.

Still in this data set, the particulars now being: HPPDs expressed in extracts; 25° C., pH 7.0; one active-site per dimer assumed.
Take B1: the kcat was 17.94 s⁻¹. On to B2, for which the kcat was determined as 5.47 s⁻¹. Consider B3, for which the kcat amounted to 6.46 s⁻¹. As to B4, the kcat stood at 4.35 s⁻¹. For the molecule B5, the kcat amounted to 4.05 s⁻¹. As for B6, the kcat amounted to 5.79 s⁻¹.

The data set is the same for the next values; noted with them: for V217I, L271I, L271V, V258M, A326R estimated from initial rates in cell extracts, pH 7.0, 25° C., 120 μM HPP.
For the molecule B7, the “Rate: kcat relative to non-mutated HPPD SEQ ID NO:14” value is given as 1. With B8, the “Rate: kcat relative to non-mutated HPPD SEQ ID NO:14” value is given as 1.2. On to B9, for which the “Rate: kcat relative to non-mutated HPPD SEQ ID NO:14” value is reported as 1.2. B10: the “Rate: kcat relative to non-mutated HPPD SEQ ID NO:14” value was 1.1.

With B3, the “Rate: kcat relative to non-mutated HPPD SEQ ID NO:14” value is given as 1. Take B11: the “Rate: kcat relative to non-mutated HPPD SEQ ID NO:14” value was 0.7. Regarding B12, the “Rate: kcat relative to non-mutated HPPD SEQ ID NO:14” value is recorded as 1.7. For the molecule B13, the “Rate: kcat relative to non-mutated HPPD SEQ ID NO:14” value is reported as 2.

A further data set is described as follows: catalytic activity and herbicide resistance of mutants of SEQ ID NO:14 in extracts. The format is biochemical, Avena sativa.
Conditions: not given
The text has this: These further mutations can all be optionally combined with the resistance conferring mutations to produce catalytically active variants of HPPD herbicide resistant enzymes of the current invention.
For B14, the “catalytic activity and resistance to sulcotrione relative to control, unmutated SEQ ID NO:14” value is “neutral mutations”.

Consider B15, for which the “catalytic activity and resistance to sulcotrione relative to control, unmutated SEQ ID NO:14” value is on record as “neutral mutations”. Take B16: the “catalytic activity and resistance to sulcotrione relative to control, unmutated SEQ ID NO:14” value is recorded as “neutral mutations”.

Consider B17, for which the “catalytic activity and resistance to sulcotrione relative to control, unmutated SEQ ID NO:14” value was “neutral mutations”. B18: the “catalytic activity and resistance to sulcotrione relative to control, unmutated SEQ ID NO:14” value is listed as “neutral mutations”.

For the molecule B19, the “catalytic activity and resistance to sulcotrione relative to control, unmutated SEQ ID NO:14” value was “neutral mutations”. In the case of B20, the “catalytic activity and resistance to sulcotrione relative to control, unmutated SEQ ID NO:14” value is recorded as “neutral mutations”. Still for that read-out and setting: the entry for B21 is “neutral mutations”. As for B22, the “catalytic activity and resistance to sulcotrione relative to control, unmutated SEQ ID NO:14” value is on record as “neutral mutations”. On the same count and under the same terms, the entry for B23 is “neutral mutations”; for B24 it is “neutral mutations”. Same read-out and setting: the entry for B25 is “neutral mutations”. With B26, the “catalytic activity and resistance to sulcotrione relative to control, unmutated SEQ ID NO:14” value is reported as “neutral mutations”.
